Reference: patent US20170106021A1, “COMPOSITIONS ENRICHED FOR HOX11+ STEM CELLS AND METHODS OF PREPARING THE SAME” (The General Hospital Corporation, priority 2014, published 2017)

Key:
mobilized stem cells = conditions: plerixafor 240 μg/kg; cited from earlier work
[1] = tested on: CD34 mRNA expression in PBLs; experiment: Quantitative real-time PCR of CD34 mRNA in peripheral blood lymphocytes (PBLs) of donors; assay type: in vivo, human; conditions: PBLs from G-CSF treated donors (mobilized, n=18) vs non-treated donors (non-mobilized, n=10); normalized to β-actin; p=0.02; FIGS. 1A, 1C
Procedure: (§1) All −70° C. frozen human peripheral blood cell samples used for this study were either from the Core Center of Excellence in Hematology (CCEH) at the Fred Hutchison Cancer Research Center or from Massachusetts General Hospital (MGH). These peripheral blood samples were obtained from donors not treated (non-mobilized samples) or treated with recombinant G-CSF (mobilized samples). Additional samples include peripheral blood samples from G-CSF treated donors that were further enriched for CD34+ stem cells. The non-mobilized, mobilized, and CD34+ stem cell enriched samples were obtained following human consent protocol 985.03-2 from Fred Hutchison Cancer Research Center. Additional fresh peripheral blood lymphocytes (PBLs) that were used to standardize the mRNA expressions of the frozen PBLs samples were obtained following human consent protocol MGH-2001P001379 from MGH, which involved the obligatory informed consent of all subjects.
(§2) Peripheral blood lymphocytes (PBLs) isolated from peripheral blood samples through leukapheresis were thawed in 37° C. water bath and washed with PBS+1% FBS twice. […] Quantitative real-time PCR was performed using Power SYBR Green reagent (Applied Biosystems, Foster City, Calif.) and the 7000 Real-Time PCR System.
(§3) Relative mRNA expression was calculated using a comparative count method (ddCT method). […]

[2] = tested on: Hox11 mRNA expression in PBLs; experiment: Quantitative real-time PCR of Hox11 mRNA in peripheral blood lymphocytes (PBLs) of donors; assay type: in vivo, human; conditions: PBLs from G-CSF treated donors (mobilized, n=18) vs non-treated donors (non-mobilized, n=10); normalized to β-actin; p=0.000013; FIGS. 1B, 1D
Procedure: as §1, §2, §3

Molecule | time at which the number of mobilized stem cells peaks after administration (mobilized stem cells) [h] | CD34 mRNA expression (relative quantity) [1] | Hox11 mRNA expression (relative quantity) [2]
c1cc(CN2CCCNCCNCCCNCC2)ccc1CN1CCCNCCNCCCNCC1 [plerixafor] | 4 to 10 | – | –
granulocyte colony-stimulating factor (protein, UniProt P09919 31-207, looked up, cytokine mobilization agent administered to donors to mobilize stem cells to peripheral blood) Granulocyte …: TPLGPASSLPQSFLLKCLEQVRKIQGDGAALQEKLVSECATYKLCHPEELVLLGHSLGIPWAPLSSCPSQALQLAGCLSQLHSGLFLYQGLLQALEGISPELGPTLDTLQLDVADFATTIWQQMEELGMAPALQPTQGAMPAFASAFQRRAGGVLVASHLQSFLEVSYRVLRHLAQP | – | exclusively found in PBLs isolated from mobilized peripheral blood samples | exclusively found in PBLs isolated from mobilized peripheral blood samples
